Reference: patent publication EP4806914A1 (Daicel Corporation, dated 2026)

Biological target: T1, AAV9 empty capsid (adeno-associated virus serotype 9 (AAV9), Assembled icosahedral particle of about 60 copies of VP1, VP2 and VP3 (nested forms of one cap gene product) with no nuc [CUT])
T1 construct: Assembled viral particle without nucleic acid, adsorbed to a Maxisorp plate; It has the same capsid protein as the full capsid and differs only in the packaged nucleic acid; also called AAV9 empty capsid sample; AAV empty capsids
Assay: ELISA, 0.1 ug AAV9 coated on Maxisorp plate, scFv detected with HRP-labeled anti-His-Tag antibody, A450-A650; reference: blank (BSA)

B1: second anti-AAV-scFv [2] (scFv)
scFv: QSLEESGGDLVKPGASLTLTCTASGFSFSSNYWMFWVRQAPGKGLEWIAHIYGGSSGSTYYASWAKGRFTISKTSSTTVTLQMTSLTAADTATYFCATVDNGYSDLKLWGPGTLVTVTSGGGGSGGGGSGGGGSELVLTQTADSVEAGVGGTVTIKCQASQSIRNWLSWYQQKPGQPPKLLISRASTLASGVPSRFSGSGSGTEFTLTISDLECDDGATYYCQSSFYADSGEPAFGGGTEVDIKRSAAAGGGSEQKLISEEDLGGGSHHHHHH
notes: Rabbit-derived scFv from a phage library, purified from E. coli culture supernatant with His MultiTrap FF; also called second anti-AAV full capsid molecule
  IE/IB (ratio of ELISA absorbance for the empty capsid sample to that for the blank (BSA)): 3.7 ratio
